The test system of data set [1] is XhoI restriction endonuclease (Xanthomonas campestris pv. holcicola ATCC 13461). Kind of data set: cleavage_in_vitro. The following applies: 50 mM Tris HCl pH 8.1, 10 mM MgCl2, 50 mM NaCl, 37 C; no activity detected from E. coli DH10B extracts.
The test system of data set [2] is XhoII restriction endonuclease (Xanthomonas campestris pv. holcicola ATCC 13461). Kind of data set: cleavage_in_vitro. The following applies: 20 mM Tris HCl pH 7.4, 10 mM MgCl2, 37 C; no activity detected from E. coli DH10B extracts.

With Adenovirus-2 DNA (XhoI sites), the activity (units per gram of cells) in data set [1] turned out to be 100000. With phage lambda DNA (XhoII/BstYI sites), the activity (units per gram of cells) in data set [2] came to 10000.

Source of the values: patent US5304480.
